Biological target: T1, human MPC1L/MPC2 heterodimer (Homo sapiens, UniProt P0DKB6;O95563)
T1 construct: MPC1L, human, wild-type cDNA, UniProt P0DKB6; MPC2, human, wild-type cDNA, UniProt O95563; Heterodimer formed beforehand (co-expressed and co-purified) and then mixed with the nanobody or the Pro-macrobody; also called hMPC1L/MPC2; hMPC1L/2 heterodimer; source: S. cerevisiae W303-1B, purified from mitochondria (LMNG, Nickel Sepharose, on-column TEV digestion); not shown: His tag, C-terminal, …
Assay: pull-down; 75 μg hMPC1L/MPC2 incubated at a stoichiometric ratio with each nanobody for 1 hour at 4°C, then Ni-NTA Superflow resin 1 hour at 4°C; washed with buffer B, eluted with 250 mM imidazole; fractions on SDS-PAGE
Details: both partners purified

T1 sequence (P0DKB6 whole entry, chain 1 of 2): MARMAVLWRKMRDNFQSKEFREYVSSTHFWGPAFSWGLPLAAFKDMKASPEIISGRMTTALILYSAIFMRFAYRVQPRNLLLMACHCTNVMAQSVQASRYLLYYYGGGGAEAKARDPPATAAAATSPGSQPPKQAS
T1 sequence (O95563 whole entry, chain 2 of 2): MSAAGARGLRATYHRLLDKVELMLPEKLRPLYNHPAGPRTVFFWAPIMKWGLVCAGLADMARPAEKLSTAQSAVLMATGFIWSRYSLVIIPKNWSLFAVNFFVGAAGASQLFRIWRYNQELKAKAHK

B1: nanobody CA19425 (VHH)
VHH: QVQLVESGGGLVQAGGSLRLSCAASGRTFSAYGISTYTMGWFRQAPGKEREFVAAIGRDSGFTYYEDSVKGRFTINADNAENTVYLQMNSLKPEDTAVYYCAASSYYGRPNVDLMAYWGKGTQVTVPP
notes: as the nanobody part of m4, held in the PMb chain of the deposited entries (modelled residues 4 to 131); One of six nanobodies (four families); also called MPC2-specific nanobody; source: from a phage display library (pMESy4) of a llama immunised with hMPC1L/MPC2 proteoliposomes
B1: binds.

Source: paper PMC12007569, “Molecular basis of pyruvate transport and inhibition of the human mitochondrial pyruvate carrier” (Science Advances, 2025)
